Values belong to the binder of their own block, whether it stands above or below them. Bridge positions count the residues as written; N and C are the ends. Square brackets hold non-standard residues; d marks the D form. Ends that are not written are not given here. * marks the point of attachment. Biotin = O=C1N[C@H]2[C@H](CS[C@H]2CCCCC(=O)*)N1; S5 = C=CCCC[C@](C)(N)C(=O)O
Experiments:
[1] = target: recombinant VLCAD (mature human VLCAD lacking its cleavable leader sequence, aa 40-655, 10x His-tagged) (human) (UniProt P49748); assay: ITC, 200 µM Btn-peptide injected into 15 µM recombinant VLCAD, 25 °C, single binding site model
MCL-1 SAHBD = target: T1, MCL-1 SAHBD
T1 chain: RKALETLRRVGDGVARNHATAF

[2] = target: MCL-1 SAHBs that do not bind VLCAD
[3] = target: T2, native VLCAD (Very Long Chain Acyl CoA Dehydrogenase) from mouse embryonic fibroblast lysates (mouse, UniProt P50544 42-656); assay: DSS chemical crosslinking of intact mouse liver mitochondria, Western (FIG. 32)
T2 construct: also called endogenous VLCAD of mouse liver mitochondria
T2 sequence (looked up): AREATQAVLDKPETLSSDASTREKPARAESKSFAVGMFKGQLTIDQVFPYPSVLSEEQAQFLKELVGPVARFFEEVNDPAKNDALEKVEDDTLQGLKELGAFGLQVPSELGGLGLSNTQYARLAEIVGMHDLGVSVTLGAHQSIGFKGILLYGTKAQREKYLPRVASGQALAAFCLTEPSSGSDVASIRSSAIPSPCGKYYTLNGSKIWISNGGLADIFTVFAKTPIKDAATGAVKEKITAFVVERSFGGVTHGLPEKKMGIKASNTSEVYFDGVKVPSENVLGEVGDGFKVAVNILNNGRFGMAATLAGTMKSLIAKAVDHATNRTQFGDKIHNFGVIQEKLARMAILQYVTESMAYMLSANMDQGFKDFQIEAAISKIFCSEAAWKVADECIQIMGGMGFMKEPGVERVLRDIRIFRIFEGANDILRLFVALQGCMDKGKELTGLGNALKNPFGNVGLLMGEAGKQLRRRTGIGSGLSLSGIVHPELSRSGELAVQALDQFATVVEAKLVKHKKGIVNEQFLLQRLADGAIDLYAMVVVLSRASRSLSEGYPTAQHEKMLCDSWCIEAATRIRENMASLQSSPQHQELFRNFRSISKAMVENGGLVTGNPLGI
Text: To investigate the native interaction between VLCAD and MCL-1, intact mitochondria were isolated from mouse livers and exposed to the chemical crosslinker DSS. Vehicle or DSS-treated mitochondria were then lysed and the resultant lysate run on a reducing/denaturing gel.

[4] = target: recombinant VLCAD (mature human VLCAD lacking its cleavable leader sequence, aa 40-655, 10x His-tagged) (human) (UniProt P49748); assay: biolayer interferometry; Biotin-PEG SAHB on streptavidin sensors, VLCAD in solution at the plotted concentrations
MCL-1ΔNΔC = MCL-1ΔNΔC (UniProt Q07820); assay: biolayer interferometry; Biotin-PEG SAHB on streptavidin sensors, MCL-1ΔNΔC in solution at the plotted concentrations
SCAD = target: T3, SCAD (mouse, UniProt Q07417 25-412); assay: streptavidin pull-down with biotinylated SAHB from cellular lysate; western blot for SCAD
T3 sequence (looked up): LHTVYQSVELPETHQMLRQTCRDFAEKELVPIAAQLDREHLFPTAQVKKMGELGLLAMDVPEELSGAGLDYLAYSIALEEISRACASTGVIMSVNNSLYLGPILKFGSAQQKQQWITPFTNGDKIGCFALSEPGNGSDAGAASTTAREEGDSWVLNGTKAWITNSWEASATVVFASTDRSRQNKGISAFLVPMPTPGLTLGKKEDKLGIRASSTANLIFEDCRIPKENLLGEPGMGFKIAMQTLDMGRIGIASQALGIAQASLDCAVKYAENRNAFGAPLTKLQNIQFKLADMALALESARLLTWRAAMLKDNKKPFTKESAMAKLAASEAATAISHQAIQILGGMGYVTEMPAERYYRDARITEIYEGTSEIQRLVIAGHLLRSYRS
Text: (§1) To validate the MS result, the pulldowns were repeated and eluates run on a gel for anti-VLCAD Western blot analysis. VLCAD was detected in the MCL-1 SAHBD pulldown eluate, confirming the MS results. […] All peptides faithfully recapitulated native BH3-binding propensities for endogenous MCL-1 protein (FIG. 8). The eluates were then probed for the other members of the acyl-CoA dehydrogenase family that manifest shorter fatty acid substrate specificities. MCL-1 SAHBD was able to pull down VLCAD, but not MCAD or SCAD (FIG. 9). Because the traditional MCL-1 staple location differs from that of the BIM, BID, and BAD SAHBs, it was important to confirm that the observed VLCAD binding specificity was due to BH3 sequence selectivity, not staple position. A BIM SAHB with the traditional MCL-1 staple (BIM SAHBF), and a MCL-1 stapled peptide with the traditional BIM staple (MCL-1 SAHBA), were generated. […]
(§2) Wild-type MEFs were trypsinized, washed once with cold PBS, and lysed on ice with NP-40 lysis buffer (50 mM Tris, pH 7.4, 150 mM NaCl, 0.5% (v/v) NP-40, complete protease inhibitor pellet (Roche)) using 1 ml of lysis buffer for every 10 million cells lysed. Cellular debris was pelleted at 14,000 g for 10 min at 4° C., and the supernatant was quantified using the BCA Protein Assay Kit (Thermo Fisher Scientific). […]

MCAD = target: T4, MCAD (mouse, UniProt P45952 26-421); assay: streptavidin pull-down with biotinylated SAHB from cellular lysate; western blot for MCAD
T4 sequence (looked up): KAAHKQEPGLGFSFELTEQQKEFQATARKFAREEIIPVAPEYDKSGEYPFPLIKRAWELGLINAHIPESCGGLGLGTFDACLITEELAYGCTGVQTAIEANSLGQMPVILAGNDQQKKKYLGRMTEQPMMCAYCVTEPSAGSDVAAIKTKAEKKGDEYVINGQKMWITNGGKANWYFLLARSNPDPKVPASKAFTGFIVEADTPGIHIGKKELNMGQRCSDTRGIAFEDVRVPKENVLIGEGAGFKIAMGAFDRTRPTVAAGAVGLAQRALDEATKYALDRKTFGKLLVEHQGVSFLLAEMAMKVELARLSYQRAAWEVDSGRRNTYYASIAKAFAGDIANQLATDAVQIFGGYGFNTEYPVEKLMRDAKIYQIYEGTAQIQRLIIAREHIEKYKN
Text: as §1, §2

[5] = target: T2, native VLCAD (Very Long Chain Acyl CoA …); assay: streptavidin pull-down with biotinylated SAHB from MEF lysate; western blot for VLCAD, densitometry ratio mutant/WT
Protocol: Wild-type MEFs were trypsinized, washed once with cold PBS, and lysed on ice with NP-40 lysis buffer (50 mM Tris, pH 7.4, 150 mM NaCl, 0.5% (v/v) NP-40, complete protease inhibitor pellet (Roche)) using 1 ml of lysis buffer for every 10 million cells lysed. Cellular debris was pelleted at 14,000 g for 10 min at 4° C., and the supernatant was quantified using the BCA Protein Assay Kit (Thermo Fisher Scientific). 2 mg of lysate per pulldown were then exposed to 50 μL of pre-equilibrated High Capacity Streptavidin Agarose beads (Thermo Fisher Scientific). […] The beads were then pelleted and washed with NP-40 lysis buffer three times before eluting the protein sample from the beads by heating at 70° C. for 10 min in SDS loading buffer. Samples were then subjected to electrophoresis and either Western analysis or Coomassie stain (SimplyBlue Safe Stain, Thermo Fisher Scientific). The antibodies used for Western analysis were the following: MCL-1 (Rockland 600-401-394; 1:1000 in 3% BSA), VLCAD (Thermo Fisher Scientific PA5-29959; 1:1000 in 1% milk+0.1% Tween-20), MCAD (Thermo Fisher Scientific PA5-27201; 1:1000 in 3% BSA), and SCAD (Abcam ab154823; 1:1000 in 3% BSA). Coomassie stained gels were then processed for proteomics analysis (see below). Biotinylated SAHB pulldowns of recombinant protein were performed as above incubating 5 nmol of SAHB with 10 pmol of rVLCAD in 500 μL total volume. […]

Sequence of MCL-1ΔNΔC (Q07820 172-320, stated change not applied): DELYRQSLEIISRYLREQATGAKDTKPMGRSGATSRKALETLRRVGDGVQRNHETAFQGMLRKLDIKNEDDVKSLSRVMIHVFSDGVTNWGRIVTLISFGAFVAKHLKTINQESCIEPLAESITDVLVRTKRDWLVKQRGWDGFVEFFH

Kd [1]: 1700 nM
B1: MCL-1 SAHBD V220A (peptide)
peptide: Biotin-RKALETLRRVGDGAARNH[S5]TAF
modifications: staple (positions not given here); not fully specified (residue 15, bridges); also: second staple residue not placed

B2: recombinant VLCAD (mature human VLCAD lacking its cleavable leader sequence, aa 40-655, 10x His-tagged) (protein)
chain: YAGGAAQLALDKSDSHPSDALTRKKPAKAESKSFAVGMFKGQLTTDQVFPYPSVLNEEQTQFLKELVEPVSRFFEEVNDPAKNDALEMVEETTWQGLKELGAFGLQVPSELGGVGLCNTQYARLVEIVGMHDLGVGITLGAHQSIGFKGILLFGTKAQKEKYLPKLASGETVAAFCLTEPSSGSDAASIRTSAVPSPCGKYYTLNGSKLWISNGGLADIFTVFAKTPVTDPATGAVKEKITAFVVERGFGGITHGPPEKKMGIKASNTAEVFFDGVRVPSENVLGEVGSGFKVAMHILNNGRFGMAAALAGTMRGIIAKAVDHATNRTQFGEKIHNFGLIQEKLARMVMLQYVTESMAYMVSANMDQGATDFQIEAAISKIFGSEAAWKVTDECIQIMGGMGFMKEPGVERVLRDLRIFRIFEGTNDILRLFVALQGCMDKGKELSGLGSALKNPFGNAGLLLGEAGKQLRRRAGLGSGLSLSGLVHPELSRSGELAVRALEQFATVVEAKLIKHKKGIVNEQFLLQRLADGAIDLYAMVVVLSRASRSLSEGHPTAQHEKMLCDTWCIEAAARIREGMAALQSDPWQQELYRNFKSISKALVERGGVVTSNPLGF
VLCAD enzymatic activity (reduction of ferrocenium hexafluorophosphate with palmitoyl-CoA as substrate) (MCL-1 SAHBD): Pre-incubation of VLCAD with MCL-1 SAHBD caused a decrease in enzymatic activity
VLCAD enzymatic activity (reduction of ferrocenium hexafluorophosphate with palmitoyl-CoA as substrate) [2]: an effect not observed when MCL-1 SAHBs that do not bind VLCAD were added

binding result [3]: binds
B3: endogenous MCL-1 protein from mouse embryonic fibroblasts (other, UniProt P97287 1-331, looked up)
chain: MFGLRRNAVIGLNLYCGGASLGAGGGSPAGARLVAEEAKARREGGGEAALLPGARVVARPPPVGAEDPDVTASAERRLHKSPGLLAVPPEEMAASAAAAIVSPEEELDGCEPEAIGKRPAVLPLLERVSEAAKSSGADGSLPSTPPPPEEEEDDLYRQSLEIISRYLREQATGSKDSKPLGEAGAAGRRALETLRRVGDGVQRNHETAFQGMLRKLDIKNEGDVKSFSRVMVHVFKDGVTNWGRIVTLISFGAFVAKHLKSVNQESFIEPLAETITDVLVRTKRDWLVKQRGWDGFVEFFHVQDLEGGIRNVLLAFAGVAGVGAGLAYLIR
notes: also called native MCL-1; endogenous/native MCL-1

EC50 (read off the curve) [4]: 3000 nM
EC50 (read off the curve) (MCL-1ΔNΔC): 200 nM
binding result (SCAD): no binding
binding result (MCAD): no binding
B4: MCL-1 SAHBD (peptide)
peptide: RKALETLRRVGDGV[S5]RNH[S5]TAF
modifications: staple 15-19; also: derivatised forms: N-terminal biotin, Btn-PEG, fluorinated analog
notes: One entry for all derivatised forms (biotin, Btn-PEG, fluorinated, underivatised); the form used is named under assay in each row; also called Btn-MCL-1 SAHBD; Biotin-PEG-MCL-1 SAHBD

binding result [5]: no binding
B5: MCL-1 SAHBD H224A (peptide)
peptide: RKALETLRRVGDGVARNAATAF
modifications: staple (positions not given here); not fully specified (residues 15, 19, bridges); also: biotinylated, site not given here
notes: MCL-1 numbering

From patent US20250306026A1 (Dana-Farber, published 2025)
